From patent publication US20210147563A1 (GENEUIN TECH, published 2021)

How the values were obtained:
[1] = target: T1, DR4 expressed on the cell surface of cancer cells (HeLa, HCT-116) (human) (UniProt O00220); assay: cell-based or functional assay
T1 sequence (looked up): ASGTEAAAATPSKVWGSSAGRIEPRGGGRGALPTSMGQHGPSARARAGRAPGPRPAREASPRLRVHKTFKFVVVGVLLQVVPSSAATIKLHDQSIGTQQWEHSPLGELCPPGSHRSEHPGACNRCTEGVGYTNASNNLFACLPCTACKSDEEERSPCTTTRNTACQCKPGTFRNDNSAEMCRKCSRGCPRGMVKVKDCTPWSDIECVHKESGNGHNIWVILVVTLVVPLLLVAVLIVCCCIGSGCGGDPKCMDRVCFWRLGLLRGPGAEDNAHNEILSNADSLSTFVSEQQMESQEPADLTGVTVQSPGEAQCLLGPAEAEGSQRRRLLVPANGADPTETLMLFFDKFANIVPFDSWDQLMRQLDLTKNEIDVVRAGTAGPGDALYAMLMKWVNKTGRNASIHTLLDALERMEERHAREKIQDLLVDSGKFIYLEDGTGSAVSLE

[2] = target: T2, DR4 expressed on the cell surface of cancer cells (HeLa, HCT-116) (human, UniProt O00220 24-468); assay: inferred from apoptosis (MTT) assay on DR4-expressing HeLa and HCT-116 cells against DR4-negative HEK293 cells; no direct binding assay
T2 construct: whole, on cells; also called death receptor 4; DR4 trimer
T2 sequence (looked up): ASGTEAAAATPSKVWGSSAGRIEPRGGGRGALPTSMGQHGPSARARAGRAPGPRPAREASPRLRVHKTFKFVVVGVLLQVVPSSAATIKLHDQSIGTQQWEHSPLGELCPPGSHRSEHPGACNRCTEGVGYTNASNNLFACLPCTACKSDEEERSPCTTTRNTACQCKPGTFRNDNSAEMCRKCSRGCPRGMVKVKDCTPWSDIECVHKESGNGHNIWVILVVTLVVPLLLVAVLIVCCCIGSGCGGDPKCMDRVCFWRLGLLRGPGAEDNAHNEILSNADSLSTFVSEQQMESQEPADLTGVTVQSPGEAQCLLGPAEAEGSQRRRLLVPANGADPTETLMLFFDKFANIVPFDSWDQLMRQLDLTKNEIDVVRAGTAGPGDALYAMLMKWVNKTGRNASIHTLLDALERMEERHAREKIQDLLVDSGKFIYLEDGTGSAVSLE
Protocol: To this end, apoptosis-inducing effects of secretory humanized DR4 scFv antibody recombinant protein were analyzed using HeLa cells, a cervical cancer cell line expressing DR4 on the cell surface, and HCT-116 cells, a colon cancer cell line. […] Each of these three cells was inoculated in a culture dish and cultured overnight, and then the secretory humanized DR4 scFv antibody recombinant protein was added to the culture medium, and the degree of death of the cells during culturing was determined by MTT method (Cyto X™ Cell viability assay kit, LPS solution, Korea).

B1: humanized DR4 scFv chimeric antigen receptor (CAR) (protein, part only; not given: hinge, transmembrane and signaling domains, not shown: a dimerising Fc or GST; small tags and cut ends)
chain, part: EVQLVESGGGLVQPGGSLRLSCSASGFTFSSYSMQWVRQAPGKGLEYVAGIRSDGRYTNYGAAVKGRATISRDNSKNTVYLQMNSLRAEDTAVYYCAKGAYGYCGSTCAPYLGQIDAWGQGTLVTVSSGSTSGSGKPGSGEGSTKGSYELTQPPSVSVSPGQTVRITCSGGRYTYGWFQQKPGQAPVTVIYGNDKRPSNIPSRFSGSTSGSTVTLTISGVQAEDEADYYCGGADFSAGLFGGGTKLTVL
**Q.** How did the cytotoxicity of CAR expressing lymphocytes on HeLa cells against HEK293 cells (CellTox Green fluorescence, effector:target 10:1, 3 days) [1] turn out when B1 was run?
**A.** 2 to 3 times

B2: secretory humanized DR4 scFv antibody recombinant protein (scFv)
scFv: EVQLVESGGGLVQPGGSLRLSCSASGFTFSSYSMQWVRQAPGKGLEYVAGIRSDGRYTNYGAAVKGRATISRDNSKNTVYLQMNSLRAEDTAVYYCAKGAYGYCGSTCAPYLGQIDAWGQGTLVTVSSGSTSGSGKPGSGEGSTKGSYELTQPPSVSVSPGQTVRITCSGGRYTYGWFQQKPGQAPVTVIYGNDKRPSNIPSRFSGSTSGSTVTLTISGVQAEDEADYYCGGADFSAGLFGGGTKLTVL
notes: Secreted from HEK293 cells transfected with pCMVFL-srkDR4 and purified through the His tag; no cleavage site is stated; also called secretory (soluble form) humanized DR4 scFv antibody fragment recombinant protein; humanized anti-DR4 scFv; not shown: Flag tag; IgG3 hinge; isoleucine zipper (ILZ) peptide; His6 tag
**Q.** Does B2 bind [2]?
**A.** binds
